Measured values: patent US20240069033A1 (Chugai, published 2024)
No end group written: not given here. puromycin linker = puromycin spacer joining the C-terminus of the translated peptide to its mRNA (mRNA display); mRNA = not defined here

T1: biotinylated splitNanoluc1-8
T1 chain: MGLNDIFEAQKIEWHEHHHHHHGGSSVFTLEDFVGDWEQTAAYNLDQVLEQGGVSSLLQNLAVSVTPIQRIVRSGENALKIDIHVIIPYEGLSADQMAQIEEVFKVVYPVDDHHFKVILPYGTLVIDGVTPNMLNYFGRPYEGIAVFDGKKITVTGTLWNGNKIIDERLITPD


Tests used:
[1] = target: T1, biotinylated splitNanoluc1-8; assay: mRNA display pull-down with biotinylated splitNanoluc1-8, qPCR
Experimental: (§1) Each Display molecule before reacting with biotinylated splitNanoluc1-8 was also subjected to qPCR in the same way, and the input nucleic acid amount was calculated.

[2] = target: T1, biotinylated splitNanoluc1-8; assay: mRNA display pull-down with biotinylated splitNanoluc1-8 on streptavidin beads, qPCR
Experimental: as §1

| Binder | fold lower recovery rate than the splitNanoluc9-10 fusion peptide [1] | binding result [2] |
| --- | --- | --- |
| MGSMLFRVTINSGSGSGSGSENLYFQGKK-{puromycin linker-mRNA} (reading uncertain; also: mRNA reverse transcribed before assay, mRNA display molecule) [splitNanoluc-9] | ≥ 300 times | no binding |
| MVSGWRLFKKISGSGSGSGSENLYFQGKK-{puromycin linker-mRNA} (reading uncertain; also: mRNA reverse transcribed before assay, mRNA display molecule) [splitNanoluc-10] | ≥ 300 times | no binding |
